We go through two substances from patent US8883734B2, “Proteasome-activating anti-aging peptides and compositions containing same” (ISP Investments Inc., priority 2009, dated 2014).

Ends that are not written are not given here.

In one test the target is T1, 20S proteasome (Homo sapiens, UniProt P28072+P28074+Q99436).
T1 construct: endogenous in cells; host or cells: experimentally aged normal human keratinocytes (NHK); crude cell lysate
The test is described as follows: Enzymatic activity of 20S proteasome on aged keratinocytes maintained in culture (AMC fluorogenic substrates). Conditions: 1% peptide in medium, renewed 3 times per week, 15 days culture. Type of test: cell-based. As for the experimental part:
Experimentally aged keratinocytes maintained in culture for 15 days are treated with 1% of peptide SEQ ID No. 6. The enzymatic activities of 20S proteasome are then studied. In fact, 20S proteasome is the subunit responsible for enzymatic hydrolysis. Three enzymatic activities may be studied: Trypsin-like, chymotrypsin-like and peptidylglutamyl-peptide hydrolase (PGPH) activity. We are proposing to study these activities by a specific enzymatic assay of each activity.
The aged keratinocytes are maintained in culture for 15 days. The cell treatment is carried out by adding a solution at 1% of peptide SEQ ID No. 6 directly into the medium, renewed 3 times per week for the time of the experiment. The assay of each activity was carried out by using specific substrates labeled by a fluorescent compound 7-amido-4-methylcoumarin (AMC). After cleavage, the AMC excitation wavelength is 350 nm, the fluorescence is read at 440 nm. The fluorescence intensity is proportional to the quantity of fluorochrome obtained and consequently, this quantity is proportional to the quantity of hydrolyzed substrate.
The synthetic peptide Boc-Leu-Arg-Arg-AMC is specific for trypsin activity.
The synthetic peptide Suc-Leu-Leu-Val-Tyr-AMC (SEQ ID NO: 8) is specific for chymotrypsin activity.
The synthetic peptide Z-Leu-Leu-Glu-AMC is specific for peptidylglutamyl-peptide hydrolase activity.
The cells are detached from the support in an extraction buffer. Afterwards, the cells are sonicated for 1 minute at 4° C., and then centrifuged at 15000 g for 30 minutes at 4° C. The protein assay is carried out by the BCA kit (Pierce). After incubation of the cellular lysate with the synthetic substrate specific for the activity studied, fluorescence is read with the Synergy spectrophotometer (BIOTEK, Vermont, USA) at 440 nm.

For the next test, the system named is beta-galactosidase. Conditions: 1% peptide, 3 times per week; keratinocytes aged 20 days in culture; X-gal staining.
A further test deals with Ki67 protein. As to the kind of experiment: Ki67 proliferation marker immunolabelling on experimentally aged keratinocytes in culture. It counts as cell-based, human. As to conditions: 1% peptide in medium; keratinocytes aged 20 days in culture; immunofluorescence. As for the experimental part: A study of the activator effect of peptide SEQ ID No. 2 was carried out by evaluating the expression of the cellular proliferation marker protein on experimentally aged keratinocytes in culture. The analysis is carried out after 20 days of culture.
The keratinocytes are cultured for 20 days in a CO2 incubator at 37° C. under humidified atmosphere. The cells are treated directly by adding 1% peptide directly into the medium. Cells that are not treated but aged in the same manner are used as control cells. For experimental requirements, the cells are seeded in 8-well labteck, maintained in culture and treated in the same support until the day of labeling. On the day of immunolabelling, the cells are rinsed by using phosphate buffer and then fixed with cold methanol before labeling.
Immunolabelling is carried out by a rabbit anti-Ki67 antibody (Abcam) diluted to 1/1000th and a secondary antibody to 1/1000th coupled with an Alexa fluor monkey anti-rabbit fluorochrome (Molecular probes).
The slides are then mounted in a suitable medium and observed by epifluorescence microscope (Nikon Eclipse E E600).

Experimental for beta-galactosidase: These cells are maintained in culture in a special keratinocyte-SFM medium (Invitrogen) at 37° C. under a humidified atmosphere of 5% CO2. Aged NHK cells are obtained by performing a series of repeated sub-cultures. Briefly the cells are seeded in 75 cm^2 flasks, at low density and cultured from 5 to 10 days between 2 passages. […] The cells are then maintained under these conditions for 45 days.
A study of the antiaging effect of the active principle was carried out by evaluating the expression of the beta-galactosidase protein on experimentally aged keratinocytes in culture.
Keratinocytes experimentally aged in 8-well labteck are cultured and maintained for 20 days in the presence or not of 1% peptide of SEQ ID No. 6. The treatment is carried out 3 times per week by direct addition into the medium.
Untreated cells are maintained in culture for the same experiment time and will be used as controls. On the day of labeling, the cells are rinsed and fixed in a 2% glutaraldehyde-2% formaldehyde mixture for 3 minutes. The cells are then rinsed and 300 μl of 5-bromo-4-chloro-3 indolyl b-D-galactosidase, commonly called X-gal (substrate of beta-galactosidase), is applied. Incubation is carried out for 24 hours in the CO2 incubator, and then the cells are rinsed and the labteck is quickly mounted in a suitable medium. Observation is carried out by transmission microscope. […]

Turning to Arg-Lys-Gly-NH2 [SEQ ID No. 6], in the test with 20S proteasome (substrate Boc-Leu-Arg-Arg-AMC, p=0.033), the “trypsin-like activity of 20S proteasome, increase” value worked out at 155.3%. Also, the “chymotrypsin-like activity of 20S proteasome, increase” value with 20S proteasome (substrate Suc-Leu-Leu-Val-Tyr-AMC, p=0.0477) was 130%. In addition, in the test with 20S proteasome (substrate Z-Leu-Leu-Glu-AMC, p=0.00053), the “peptidylglutamyl-peptide hydrolase activity of 20S proteasome, increase” value turned out to be 144.6%. In the test with beta-galactosidase, the “beta-galactosidase activity in treated cells compared to untreated cells” value is reported as “strongly reduced”.

Consider “Leu-Arg-Lys-Gly-Met-NH2 (LRKGM-NH2) [SEQ ID No. 2]”, for which the “Ki67 protein expression in aged and treated cells compared to untreated cells” value in the test on Ki67 protein is recorded as “increased the Ki67 protein”.
